B1: GhJAZ1 after deletion of NT domain: GhJAZ1 mutant with NT domain deleted, protein sequence SEQ ID No. 83 (protein)
chain: MSSCSESTAMKPARSPEANGTPVVPPPTMNLFPLNDKSDDVCGRNGGNPKNLTSMDLFPQQAGLASKDDSPNKLEPQTAPMTIFYGGQVIVFNDFPANKAKEIMLLASNSSSQSNNSFNPIPFTSSIARSPIESSIGVPPTSKPVHPAQRAVPGDLPIARRASLHRFLEKRKDRITAKAPYQINNSAAAPSLSGDNKSWLGLAAQSP
B2: GhJAZ1: cotton JAZ1 protein, gene number Gh_A05G0260, sequence SEQ ID No. 4; prokaryotically expressed with His tag, about 30 KD (protein)
chain: MSSCSESTAMKPARSPEKPSFAQTCNLLSQYLKEKGSFGDLSLGMTCNVEANGTPVVPPPTMNLFPLNDKSDDVCGRNGGNPKNLTSMDLFPQQAGLASKDDSPNKLEPQTAPMTIFYGGQVIVFNDFPANKAKEIMLLASNSSSQSNNSFNPIPFTSSIARSPIESSIGVPPTSKPVHPAQRAVPGDLPIARRASLHRFLEKRKDRITAKAPYQINNSAAAPSLSGDNKSWLGLAAQSP
modifications: His tag
notes: prokaryotically expressed with His tag, about 30 KD

Legend:
[1] = biological target: c-Myc (Homo sapiens, UniProt P01106); assay: Yeast two hybrid with c-Myc; assay type: binding; design: with the full length of c-Myc and NMYC, respectively; expressed in transfected cells; host or cells: yeast Y2HGold
c-Myc, sequence (P01106 whole entry): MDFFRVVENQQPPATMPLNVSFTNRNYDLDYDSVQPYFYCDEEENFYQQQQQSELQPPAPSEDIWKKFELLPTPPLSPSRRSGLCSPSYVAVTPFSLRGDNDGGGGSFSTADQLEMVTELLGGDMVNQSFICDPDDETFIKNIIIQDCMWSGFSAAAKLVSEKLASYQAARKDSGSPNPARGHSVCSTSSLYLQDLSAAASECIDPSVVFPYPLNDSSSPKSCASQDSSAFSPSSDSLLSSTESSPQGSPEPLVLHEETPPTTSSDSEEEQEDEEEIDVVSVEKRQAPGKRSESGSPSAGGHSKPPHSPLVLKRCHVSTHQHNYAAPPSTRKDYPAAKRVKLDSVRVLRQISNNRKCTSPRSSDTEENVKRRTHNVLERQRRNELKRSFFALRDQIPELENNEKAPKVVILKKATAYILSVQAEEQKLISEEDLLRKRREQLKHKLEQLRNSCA
Description: […]

[2] = biological target: uPAR (Homo sapiens, UniProt Q03405); assay: Yeast two hybrid with uPAR; assay type: binding; design: the CDS of the above genes was subcloned to pGADT7 (YouBio, VT1639); expressed in transfected cells; host or cells: yeast Y2HGold
uPAR, sequence (Q03405 23-305): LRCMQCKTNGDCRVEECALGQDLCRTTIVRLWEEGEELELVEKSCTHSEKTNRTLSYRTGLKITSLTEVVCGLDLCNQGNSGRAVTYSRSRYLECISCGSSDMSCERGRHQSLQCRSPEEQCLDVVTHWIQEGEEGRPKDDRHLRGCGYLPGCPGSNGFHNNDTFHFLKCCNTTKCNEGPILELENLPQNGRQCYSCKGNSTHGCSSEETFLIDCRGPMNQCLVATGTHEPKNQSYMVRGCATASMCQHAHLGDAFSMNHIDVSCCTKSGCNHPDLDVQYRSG
Description: […]
In order to explore how GhJAZ1 enters cancer cells, we cloned the genes of most tumor surface receptors, including uPAR (NCBI database accession number of NM_002659.4), CCK1R (NP_000721.1), CCK2R (NP_001350481.1), HER2 (NP_004439.2), GRPR (NP_005305.1), MUC1 (NP_001358649.1), VEGFR1 (NP_002010.2), Insulin receptor (NM_000208.4), NTR (XM_011528827.2), PSMA (XM_017017432.1), TFR1 (NM_001128148.3), TFR2 (NM_003227.4), PEPT1 (NM_005073.4), APN (NM_001150.3). […] We detected the interaction of GhJAZ1 with uPA (as the ligand of uPAR, NCBI database accession number of NP_002649.2) and uPAR by yeast two hybrid (the steps of the experiment as Example 3). […]

Row | Molecule | interaction with c-Myc [1] | interaction with uPAR [2]
1 | B1 | significantly weakened | significantly weakened
2 | B2 | interacted | interacted

Reference: patent publication US20240279288A1, “APPLICATION OF PLANT JAZ PROTEINS AND DERIVED POLYPEPTIDES IN PREVENTION AND TREATMENT OF HUMAN AND ANIMAL TUMORS” (ANYANG INSTITUTE OF SINO-COTTON INDUSTRY INNOVATION, priority 2021, published 2024)
